Assay results as given in PMC7862291, “Full-length in meso structure and mechanism of rat kynurenine 3-monooxygenase inhibition” (Communications Biology, 2021).

Molecular target: the molecule itself
Assay: crystal structure; in meso (lipidic cubic phase, 9:1 monoolein:cholesterol); Rat-KMO with compound 3 (and NADPH) or compound 4; 3.0 Å

B1: full-length Rattus norvegicus kynurenine 3-monooxygenase (Rat-KMO), crystallisation construct (enzyme, Rattus norvegicus (rat), UniProt O88867 1-478, looked up)
chain: MASSDTEGKRVVVIGGGLVGALNACFLAKRNFQVDVYEAREDIRVANFMRGRSINLALSYRGRQALKAVGLEDQIVSKGVPMKARMIHSLSGKKSAIPYGNKSQYILSISREKLNKDLLTAVESYPNAKVHFGHKLSKCCPEEGILTMLGPNKVPRDITCDLIVGCDGAYSTVRAHLMKKPRFDYSQQYIPHGYMELTIPPKNGEYAMEPNCLHIWPRNAFMMIALPNMDKSFTCTLFMSFEEFEKLPTHSDVLDFFQKNFPDAIPLMGEQALMRDFFLLPAQPMISVKCSPFHLKSRCVLMGDAAHAIVPFFGQGMNAGFEDCLVFDELMDKFNNDLSVCLPEFSRFRIPDDHAISDLSMYNYIEMRAHVNSRWFLFQRLLDKFLHALMPSTFIPLYTMVAFTRIRYHEAVLRWHWQKKVINRGLFVLGSLVAIGSAYILVHHLSPRPLELLRSAWTGTSGHWNRSADISPRVPWSH
notes: thrombin site between GST and the N-terminus, TEV site before the C-terminal FLAG tag; C-terminus disordered from H443 in the structure; crystallised in meso with compound 3 or compound 4; No TEV cleavage is described; Treated with N-Glycosidase F; also called full-length KMO (1-478); not shown: GST, N-terminal, cleaved
stoichiometry N: 2
